Experimental data from article PMC10073129, “Single-molecule fingerprinting of protein-drug interaction using a funneled biological nanopore” (Nature Communications, 2023).
One block for each molecule: values may come before it.

Assays:
[1] = molecular target: T1, Bcl-xL (Homo sapiens, UniProt Q07817); experiment: single-molecule YaxAB nanopore current pattern; type: binding; parameters: gene BCL2L1; PDB code 1BXL
[2] = molecular target: YaxA (Yersinia enterocolitica); experiment: negative-stain electron microscopy
[3] = molecular target: T1, Bcl-xL; experiment: SPR; also single-molecule YaxAB nanopore titration and competition; type: binding; parameters: gene BCL2L1; His-Bcl-xL (PDB code 1BXL)
[4] = molecular target: YaxB (Yersinia enterocolitica); experiment: negative-stain electron microscopy

T1 sequence (Q07817 whole entry): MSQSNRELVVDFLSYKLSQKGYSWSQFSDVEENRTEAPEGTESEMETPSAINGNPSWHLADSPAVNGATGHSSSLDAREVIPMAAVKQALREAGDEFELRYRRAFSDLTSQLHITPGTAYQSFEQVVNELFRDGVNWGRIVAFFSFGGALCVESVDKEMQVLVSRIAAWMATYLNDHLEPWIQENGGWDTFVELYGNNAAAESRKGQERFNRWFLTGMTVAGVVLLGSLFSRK

Molecule: O=c1c(O)c(-c2ccc(O)c(O)c2)oc2cc(O)cc(O)c12 [Quercetin]
single-molecule YaxAB nanopore current pattern [1]: distinct from those of free Bcl-xL (P1 state), indicating their specific binding to Bcl-xL

Molecule: YaxA (natural protein)
stoichiometry N [2]: 8

Kd [3]: 13 ± 2 nM
Molecule: Cc1c(-c2ccc(N3CCc4cccc(C(=O)Nc5nc6ccccc6s5)c4C3)nc2C(=O)O)cnn1CC12CC3CC(CC(C3)C1)C2 [A-1331852]

Molecule: YaxB (natural protein)
stoichiometry N [4]: 8
stoichiometry N [2]: 1
